Test results: publication PMC7641760, “Evolution of a highly functional circular DNA aptamer in serum”

Tests used:
human alpha-thrombin [1] = target: T1, human alpha-thrombin (Homo sapiens, UniProt P00734;P00734 328-363;364-622); experiment: EMSA; EMSA: 1x binding buffer (PBSMT pH 7.2: 137 mM NaCl, 2.68 mM KCl, 8.1 mM Na2HPO4, 1.76 mM KH2PO4, 1 mM MgCl2, 0.025% Tween-20), <50 pM 32P-DNA, 30 min; gel 10% n
[2] = target: alpha-thrombin (light; heavy chain) (Homo sapiens (Human), UniProt P00734;P00734 328-363;364-622, N-glycosylated (plasma); interchain disulfide); experiment: EMSA; PBS pH 7.2, 1 mM MgCl2, 0.025% Tween-20; DNA <50 pM; conditions: copies: 1;1; label: 32P
human alpha-thrombin [3] = target: T1, human alpha-thrombin; experiment: competition; displaces 32P-CTBA4T (500 pM, thrombin 50 pM) at high concentration; exosite I; EMSA: 1x binding buffer (PBSMT pH 7.2: 137 mM NaCl, 2.68 mM KCl, 8.1 mM Na2HPO4, 1.76 mM KH2PO4, 1 mM MgCl2, 0.025% Tween-20), <50 pM 32P-DNA, 30 min; gel 10% n

B1: CTBA4T-B1 (structured_DNA)
DNA: ATCTCGAGTCATAGGGGGCGCGAACATACGCGGTTGGTGTGGTTGGCTGACTCGT
modifications: circular (5'-3' ligated)
In the case of B1, the Kd (human alpha-thrombin [1]) is reported as 0.019 nM.

B2: CTBA4T (structured_DNA)
DNA: ATCTCGACTAGTCATAGGGGGCGCGAACATACGCGGTTGGTGTGGTTGGCTGACAATACTCGT
modifications: circular (5'-3' ligated)
Work on B2 yielded a Kd (human alpha-thrombin [1]) of 0.023 nM.

B3: CTBA4T (structured_DNA)
DNA: B2 DNA
modifications: circular (3'-5' ligated)
With B3 the Kd [2] was 0.023 nM.

B4: TBA15 (structured_DNA)
DNA: GGTTGGTGTGGTTGG
B4: binds (human alpha-thrombin [3]).
